From US20250002576A1

Assays:
[1] = target: human Claudin 18.2 (human) (UniProt P56856); test: flow cytometry, antibody dilution series on hCLDN18.2-expressing MiaPaCa-2 cells
lysozyme = test: non-specific binding ELISA, lysozyme immobilized

With claudiximab (antibody) the EC50 [1] was 8.63 nM and the normalized signal (fluorescence intensity normalized to trastuzumab) (lysozyme) was 0.9.
